Results from patent US20080008707A1, “Denatured collagen peptides and uses thereof” (Cell-Matrix, Inc., priority 2006, published 2008).
Square brackets hold non-standard residues; d marks the D form. Ends that are not written are not given here. Hyp = O=C(O)[C@@H]1C[C@@H](O)CN1

What was measured:
[1] = biological target: HUI77, murine IgM anti-denatured-collagen monoclonal antibody; assay: competition ELISA on coated dn-collagen IV
[2] = biological target: D93, recombinant humanized IgG1 kappa antibody targeting denatured-collagen; assay: competition ELISA on coated human dn-collagen IV
Chain of D93, recombinant humanized IgG1 kappa antibody targeting denatured-collagen (heavy, as listed by the source, chain 1 of 2): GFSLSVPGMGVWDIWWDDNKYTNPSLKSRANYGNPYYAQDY
Chain of D93, recombinant humanized IgG1 kappa antibody targeting denatured-collagen (light, as listed by the source, chain 2 of 2): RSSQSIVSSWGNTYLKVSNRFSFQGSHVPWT

[3] = biological target: HUI77, murine IgM anti-denatured-collagen monoclonal antibody; assay: competition ELISA on coated dn-collagen IV; * separate assay
[4] = biological target: D93, recombinant humanized IgG1 kappa antibody targeting denatured-collagen; assay: competition ELISA on coated human dn-collagen IV; * separate assay

Row | % inhibition of HUI77 binding to dn-collagen IV, peptide 10 µM [1] [%] | % inhibition of HUI77 binding to dn-collagen IV, peptide 100 µM [1] [%] | % inhibition of HUI77 binding to dn-collagen IV, peptide 1000 µM [1] [%] | % inhibition of D93 binding to dn-collagen IV, peptide 1 µM [2] [%] | % inhibition of D93 binding to dn-collagen IV, peptide 10 µM [2] [%] | % inhibition of D93 binding to dn-collagen IV, peptide 100 µM [2] [%] | % inhibition of D93 binding to dn-collagen IV, peptide 1000 µM [2] [%] | % inhibition of HUI77 binding to dn-collagen IV, peptide 10 µM [3] [%] | % inhibition of HUI77 binding to dn-collagen IV, peptide 100 µM [3] [%] | % inhibition of HUI77 binding to dn-collagen IV, peptide 1000 µM [3] [%] | % inhibition of D93 binding to dn-collagen IV, peptide 1 µM [4] [%] | % inhibition of D93 binding to dn-collagen IV, peptide 10 µM [4] [%] | % inhibition of D93 binding to dn-collagen IV, peptide 100 µM [4] [%] | % inhibition of D93 binding to dn-collagen IV, peptide 1000 µM [4] [%] | Binder
1 | 4.5 | 9 | 62 | 11 | 43 | 89.5 | 93.5 | – | – | – | – | – | – | – | F[Hyp]GP[Hyp]GPDGL[Hyp]GSMGP[Hyp]G [synthetic peptide No. 7, … (SEQ ID NO: 36)]
2 | 8 | 10.5 | 10 | 11 | 6 | 4 | 11.5 | – | – | – | – | – | – | – | [Hyp]GAKGLPGP [synthetic peptide No. 13, … (SEQ ID NO: 17)]
3 | 10 | 14 | 73 | 12 | 41.5 | 89 | 92.5 | – | – | – | – | – | – | – | LPGP[Hyp]GP[Hyp]GP [synthetic peptide No. 5, … (SEQ ID NO: 20)]
4 | 1.5 | 2 | 1 | 5 | 4.5 | 1.5 | 6.5 | – | – | – | – | – | – | – | GPPGPPG (also: hydroxyproline at marked P positions, if any, marking lost) [synthetic peptide No. 23, GPPGPPG (SEQ ID NO: 33)]
5 | – | – | – | – | – | – | – | 10.2 | 0 | 3.7 | 5.4 | 7.8 | 8.3 | 11.6 | LPGFPG (also: hydroxyproline marking, if any, lost) [synthetic peptide No. 24, LPGFPG (SEQ ID NO: 38)]
6 | 6.5 | 18 | 86 | 13 | 35.5 | 85.5 | 92.5 | – | – | – | – | – | – | – | LPGP[Hyp]GP[Hyp]G [synthetic peptide No. 20, … (SEQ ID NO: 21)]
7 | 7.5 | 18 | 86.5 | 30 | 81 | 93.5 | 93.5 | – | – | – | – | – | – | – | [Hyp]GAKGLPGP[Hyp]GP[Hyp]GPY [synthetic peptide No. 12, … (SEQ ID NO: 2)]
8 | 2.5 | 8 | 3.5 | 7 | 6 | 3.5 | 7.5 | – | – | – | – | – | – | – | GPPG (also: hydroxyproline marking, if any, lost) [synthetic peptide No. 22, GPPG (SEQ ID NO: 35)]
